Assay results as given in patent publication US20250051464A1.

How the values were obtained:
[1] = target: Human EphA2 (ephrin receptor A2) (human) (UniProt P29317); experiment: IHC/IF score on frozen human tumor tissue, GAC
[2] = target: Human EphA2 (ephrin receptor A2) (human) (UniProt P29317); experiment: IHC/IF score on frozen human tumor tissue, HNC
[3] = target: Human EphA2 (ephrin receptor A2) (human) (UniProt P29317); experiment: IHC/IF score on frozen human tumor tissue, ER+ BRC
[4] = target: Human EphA2 (ephrin receptor A2) (human) (UniProt P29317); experiment: IHC/IF score on frozen human tumor tissue, UCEC-clear cell
[5] = target: Human EphA2 (ephrin receptor A2) (human) (UniProt P29317); experiment: IHC/IF score on frozen human tumor tissue, RCC-clear cell
[6] = target: Human EphA2 (ephrin receptor A2) (human) (UniProt P29317); experiment: IHC/IF score on frozen human tumor tissue, UCEC-papillary
[7] = target: Human EphA2 (ephrin receptor A2) (human) (UniProt P29317); experiment: IHC/IF score on frozen human tumor tissue, TNBC
[8] = target: Human EphA2 (ephrin receptor A2) (human) (UniProt P29317); experiment: IHC/IF score on frozen human tumor tissue, OVA
[9] = target: Human EphA2 (ephrin receptor A2) (human) (UniProt P29317); experiment: IHC/IF score on frozen human tumor tissue, ESC
[10] = target: Human EphA2 (ephrin receptor A2) (human) (UniProt P29317); experiment: IHC/IF score on frozen human tumor tissue, MELA
[11] = target: Human EphA2 (ephrin receptor A2) (human) (UniProt P29317); experiment: IHC/IF score on frozen human tumor tissue, PROC
[12] = target: Human EphA2 (ephrin receptor A2) (human) (UniProt P29317); experiment: IHC/IF score on frozen human tumor tissue, RCC-papillary
[13] = target: Human EphA2 (ephrin receptor A2) (human) (UniProt P29317); experiment: IHC/IF score on frozen human tumor tissue, ANC
[14] = target: Human EphA2 (ephrin receptor A2) (human) (UniProt P29317); experiment: IHC/IF score on frozen human tumor tissue, UCEC-endometriod
[15] = target: Human EphA2 (ephrin receptor A2) (human) (UniProt P29317); experiment: IHC/IF score on frozen human tumor tissue, NSCLC-SQ
[16] = target: Human EphA2 (ephrin receptor A2) (human) (UniProt P29317); experiment: IHC/IF score on frozen human tumor tissue, Her2+ BRC
[17] = target: Human EphA2 (ephrin receptor A2) (human) (UniProt P29317); experiment: IHC/IF score on frozen human tumor tissue, URO
[18] = target: Human EphA2 (ephrin receptor A2) (human) (UniProt P29317); experiment: IHC/IF score on frozen human tumor tissue, PANC
[19] = target: Human EphA2 (ephrin receptor A2) (human) (UniProt P29317); experiment: IHC/IF score on frozen human tumor tissue, NSCLC-Adeno
[20] = target: Human EphA2 (ephrin receptor A2) (human) (UniProt P29317); experiment: IHC/IF score on frozen human tumor tissue, CRC
[21] = target: Human EphA2 (ephrin receptor A2) (human) (UniProt P29317); experiment: IHC/IF score on frozen human tumor tissue, STS

Human EphA2 (ephrin receptor A2) (human), sequence (P29317 24-976 limits assumed): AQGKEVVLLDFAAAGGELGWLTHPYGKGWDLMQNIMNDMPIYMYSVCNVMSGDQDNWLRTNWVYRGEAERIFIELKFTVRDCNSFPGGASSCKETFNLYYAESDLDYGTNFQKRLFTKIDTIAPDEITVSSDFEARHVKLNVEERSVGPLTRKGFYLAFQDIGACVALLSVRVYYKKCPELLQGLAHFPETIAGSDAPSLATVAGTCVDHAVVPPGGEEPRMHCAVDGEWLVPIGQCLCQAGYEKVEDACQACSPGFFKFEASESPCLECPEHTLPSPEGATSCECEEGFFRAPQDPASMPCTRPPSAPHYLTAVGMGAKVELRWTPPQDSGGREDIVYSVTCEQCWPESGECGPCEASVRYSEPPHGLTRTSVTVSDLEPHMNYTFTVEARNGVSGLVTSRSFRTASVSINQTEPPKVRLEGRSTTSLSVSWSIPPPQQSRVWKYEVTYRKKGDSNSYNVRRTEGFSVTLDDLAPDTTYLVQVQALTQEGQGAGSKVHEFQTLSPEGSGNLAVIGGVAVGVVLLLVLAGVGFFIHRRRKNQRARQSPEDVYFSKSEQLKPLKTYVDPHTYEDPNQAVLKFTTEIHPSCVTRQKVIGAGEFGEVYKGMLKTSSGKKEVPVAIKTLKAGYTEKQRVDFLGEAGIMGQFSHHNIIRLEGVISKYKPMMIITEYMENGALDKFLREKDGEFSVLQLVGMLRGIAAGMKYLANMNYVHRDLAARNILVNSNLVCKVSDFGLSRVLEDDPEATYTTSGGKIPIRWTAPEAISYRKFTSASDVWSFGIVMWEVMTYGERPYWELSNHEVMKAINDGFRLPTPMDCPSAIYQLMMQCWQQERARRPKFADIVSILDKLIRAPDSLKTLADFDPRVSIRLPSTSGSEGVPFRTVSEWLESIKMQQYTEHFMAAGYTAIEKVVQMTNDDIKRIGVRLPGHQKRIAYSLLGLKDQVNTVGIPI

LS-C100255-400 (AA 30-60) (antibody)
IHC score [1]: 1
IHC score [2]: 1
IHC score [3]: 1
IHC score [4]: 2
IHC score [5]: 1
IHC score [6]: 2
IHC score [7]: 1
IHC score [8]: 1
IHC score [9]: 1
IHC score [10]: 2
IHC score [11]: 1
IHC score [12]: 1
IHC score [13]: 1
IHC score [14]: 1
IHC score [15]: 1
IHC score [16]: 1
IHC score [17]: 1
IHC score [18]: 1
IHC score [19]: 1
IHC score [20]: 1
IHC score [21]: 1

6997S (around Arg907) (antibody)
IHC score [1]: 1
IHC score [2]: 1
IHC score [3]: 1
IHC score [4]: 2
IHC score [5]: 1
IHC score [6]: 2
IHC score [7]: 1
IHC score [8]: 1
IHC score [9]: 2
IHC score [10]: 2
IHC score [11]: 1
IHC score [12]: 1
IHC score [13]: 2
IHC score [14]: 1
IHC score [15]: 1
IHC score [16]: 1
IHC score [17]: 1
IHC score [18]: 1
IHC score [19]: 1
IHC score [20]: 1
IHC score [21]: 1

MAB3035 (Gln25-Asn534) (antibody)
IHC score [1]: 1
IHC score [2]: 2
IHC score [3]: 1
IHC score [4]: 2
IHC score [5]: 1
IHC score [6]: 2
IHC score [7]: 1
IHC score [8]: 2
IHC score [9]: 2
IHC score [10]: 3
IHC score [11]: 1
IHC score [12]: 1
IHC score [13]: 2
IHC score [14]: 2
IHC score [15]: 2
IHC score [16]: 1
IHC score [17]: 1
IHC score [18]: 2
IHC score [19]: 2
IHC score [20]: 1
IHC score [21]: 1

LS-C36249-100 (extracellular) (antibody)
IHC score [1]: 1
IHC score [2]: 2
IHC score [3]: 1
IHC score [4]: 2
IHC score [5]: 1
IHC score [6]: 3
IHC score [7]: 1
IHC score [8]: 2
IHC score [9]: 2
IHC score [10]: 3
IHC score [11]: 1
IHC score [12]: 1
IHC score [13]: 2
IHC score [14]: 2
IHC score [15]: 2
IHC score [16]: 2
IHC score [17]: 1
IHC score [18]: 1
IHC score [19]: 2
IHC score [20]: 1
IHC score [21]: 2

Ab73254 (extracellular) (antibody)
IHC score [1]: 1
IHC score [2]: 1
IHC score [3]: 1
IHC score [4]: 2
IHC score [5]: 1
IHC score [6]: 1
IHC score [7]: 1
IHC score [8]: 1
IHC score [9]: 1
IHC score [10]: 2
IHC score [11]: 1
IHC score [12]: 1
IHC score [13]: 1
IHC score [14]: 1
IHC score [15]: 2
IHC score [16]: 1
IHC score [17]: 1
IHC score [18]: 1
IHC score [19]: 2
IHC score [20]: 1
IHC score [21]: 1

LS-B1794-50 (AA 450-500) (antibody)
IHC score [1]: 1
IHC score [2]: 1
IHC score [3]: 1
IHC score [4]: 2
IHC score [5]: 1
IHC score [6]: 2
IHC score [7]: 1
IHC score [8]: 1
IHC score [9]: 1
IHC score [10]: 2
IHC score [11]: 1
IHC score [12]: 2
IHC score [13]: 1
IHC score [14]: 1
IHC score [15]: 1
IHC score [16]: 1
IHC score [17]: 1
IHC score [18]: 1
IHC score [19]: 2
IHC score [20]: 1
IHC score [21]: 1
